Data reported in publication PMC6589575.

Molecular target: His6–Drp1, full-length Drp1-short isoform
Experiment: co-sedimentation

percent of His6–Drp1 in the pellet (with GMP–PCP and His6–cyclin C): 34%
percent of His6–Drp1 in the pellet (with GMP–PCP): 16%
Substance: His6–Drp1, full-length Drp1-short isoform (enzyme)
